Consider twelve molecules from patent US11981935B2, “7β-hydroxysteroid dehydrogenase mutants and process for the preparation of ursodeoxycholic acid” (PharmaZell GmbH, priority 2010, dated 2024).

What is called Km is the substrate concentration at which the rate is half of its maximum.

Data set [1] has as its target 7β-HSDH from Collinsella aerofaciens DSM 3979 (Collinsella aerofaciens, UniProt A4ECA9). Format: biochemical.
A further data set concerns the target 7β-HSDH (Collinsella aerofaciens, UniProt A4ECA9). Nature of the data set: Photometric identification of 7β-HSDH activity (production example 1). Format: biochemical, Collinsella aerofaciens ATCC 25986. To be noted: 0.1 mM test substance, potassium phosphate buffer 50 mM pH 8, in the presence of NADP+ or NADPH. The procedure:
For identification of 7β-HSDH activity, the activity was investigated by a photometric method. In a 1 ml cuvette, enzyme and 0.1 mM of test substance (UDCA) were mixed in potassium phosphate buffer (50 mM, pH8).

Substrate in data set [2]: NC(=O)C1=CN([C@@H]2O[C@H](COP(=O)(O)OP(=O)(O)OC[C@H]3O[C@@H](n4cnc5c(N)ncnc54)[C@H](OP(=O)(O)O)[C@@H]3O)[C@@H](O)[C@H]2O)C=CC1
Nature of the data set: purified protein, by the assay type. The note with it: other: pH 8, 25° C.

Substrate in data set [3]: NC(=O)c1ccc[n+]([C@@H]2O[C@H](COP(=O)([O-])OP(=O)(O)OC[C@H]3O[C@@H](n4cnc5c(N)ncnc54)[C@H](OP(=O)(O)O)[C@@H]3O)[C@@H](O)[C@H]2O)c1
Nature of the data set: purified protein, by the assay type. To be noted: other: pH 8, 25° C.

The nature of data set [4]: Photometric activity of 7β-HSDH variants with NADPH or NADH (production example 7). Format: biochemical, Collinsella aerofaciens. To be noted: for Specific activity NADH / Volumetric activity NADH: cofactor NADH; for Specific activity NADPH / Volumetric activity NADPH: cofactor NADPH.
Substrate in data set [5]: C[C@H](CCC(=O)O)[C@H]1CC[C@H]2[C@@H]3C(=O)C[C@@H]4CC(=O)CC[C@]4(C)[C@H]3CC(=O)[C@]12C
Nature of the data set: Enzyme-kinetic investigation of the 7β-HSDH mutants. The note with it: other: 0.5 mM NADH. In kind it is biochemical, Collinsella aerofaciens. The text has this:
Altogether, the 7β-HSDH mutants G39D, G39D/R40L, G39D/R40I and G39D/R40V were produced. The G39D mutant is produced by Quickchange mutagenesis, and the other mutants are produced by the PCR method of Sanchis et al. (Sanchis J, Fernández L, Carballeira J D, Drone J, Gumulya Y, Höbenreich H, Kahakeaw D, Kille S, Lohmer R, Peyralans J J, Podtetenieff J, Prasad S, Soni P, Taglieber A, Wu S, Zilly F E, Reetz M T. Improved PCR method for the creation of saturation mutagenesis libraries in directed evolution: application to difficult-to-amplify templates. Appl Microbiol Biotechnol. 2008 November; 81(2): 387-97). The following primers were used for the mutagenesis, with the bases shown in italics coding in each case for the exchanged amino acid:
The mutants prepared are evaluated by means of enzyme-kinetic investigations, the results of which are shown as graphs in FIG. 11. […] The need to increase the cofactor concentration in the enzyme-kinetic investigation of the 7β-HSDH mutants is due to the increased semisaturation concentrations for the cofactor NADH in the mutants. From the plots of substrate concentration versus specific enzyme activity, the characteristic curves of Michaelis-Menten kinetics can be seen for the 7β-HSDH mutants, whereas the curve of Michaelis-Menten kinetics with substrate inhibition can be seen from the plot for the unmodified wild-type 7β-HSDH. Accordingly, the classical Michaelis-Menten model (equation 1) was used for evaluating the measurement series of the 7β-HSDH mutants and the Michaelis-Menten model with substrate inhibition was used for the measurement series of the unmodified wild-type 7β-HSDH (equation 2).
[formula] • EAx: specific enzyme activity, U mg^−1=μmol min^−1 mg^−1 • vmax: maximum specific enzyme activity, U mg^−1=μmol min^−1 mg^−1 • cS: substrate or cofactor concentration, mol L^−1 • Km: semisaturation concentration, mol L^−1
The following table gives enzyme-kinetic parameters of the unmodified wild-type 7β-HSDH and the mutants thereof with altered cofactor specificity. NADPH is used as cofactor for the wild type, whereas NADH is used as cofactor for the mutants.

The nature of data set [6]: Kinetic constants of FDH (mutant D221G) at pH 6, 7 and 8. Format: biochemical, Mycobacterium vaccae.

“Also recorded” adds a separate entry of the source.

Turning to `NC(=O)c1ccc[n+]([C@@H]2O[C@H](COP(=O)([O-])OP(=O)(O)OC[C@H]3O[C@@H](n4cnc5c(N)ncnc54)[C@H](OP(=O)(O)O)[C@@H]3O)[C@@H](O)[C@H]2O)c1` [NADP^+], the kcat in data set [1] is recorded as 944.95 1 μmol/(μmol × min). Further, the Km in data set [1] (pH 8) amounted to 5.32 µM.
As to `C[C@H](CCC(=O)O)[C@H]1CC[C@H]2[C@@H]3[C@H](O)C[C@@H]4C[C@H](O)CC[C@]4(C)[C@H]3C[C@H](O)[C@]12C` [CA, Cholic acid], on 7β-HSDH, the “activity of 7β-HSDH against the test substance” value (shortened to “activity of 7β-HSDH”) is “no activity; also recorded: not detectable”.
On to `NC(=O)C1=CN([C@@H]2O[C@H](COP(=O)(O)OP(=O)(O)OC[C@H]3O[C@@H](n4cnc5c(N)ncnc54)[C@H](OP(=O)(O)O)[C@@H]3O)[C@@H](O)[C@H]2O)C=CC1` [NADPH], for which the kcat in data set [1] is reported as 1033.44 1 μmol/(μmol × min).
For the molecule `C[C@H](CCC(=O)O)[C@H]1CC[C@H]2[C@@H]3[C@@H](O)C[C@@H]4C[C@H](O)CC[C@]4(C)[C@H]3CC[C@]12C` [UDCA, Ursodeoxycholic acid], the “activity of 7β-HSDH” value on 7β-HSDH is given as 60 U/ml. Also, in data set [1], the Vmax amounted to 38.17 U/mg protein and the kcat was 1179.39 1 μmol/(μmol × min).
For `C[C@H](CCC(=O)O)[C@H]1CC[C@H]2[C@@H]3C(=O)C[C@@H]4C[C@H](O)CC[C@]4(C)[C@H]3CC[C@]12C` [7-Keto-LCA, 7-Keto-lithocholic acid], on 7β-HSDH, the “activity of 7β-HSDH” value turned out to be 35 U/ml.

B1: 7β-HSDH from Collinsella aerofaciens DSM 3979 (ATCC 25986), wild type, SEQ ID NO:2 (Collinsella aerofaciens ATCC 25986) (protein)
chain: MNLREKYGEWGLILGATEGVGKAFCEKIAAGGMNVVMVGRREEKLNVLAGEIRETYGVETKVVRADFSQPGAAETVFAATEGLDMGFMSYVACLHSFGKIQDTPWEKHEAMINVNVVTFLKCFHHYMRIFAAQDRGAVINVSSMTGISSSPWNGQYGAGKAFILKMTEAVACECEGTGVDVEVITLGTTLTPSLLSNLPGGPQGEAVMKIALTPEECVDEAFEKLGKELSVIAGQRNKDSVHDWKANHTEDEYIRYMGSFYRD
On to B1, for which, in data set [2], the Km was determined as 4.50 µM, the Vmax was found to be 33.4 µmol/min/mg and the kcat is given as 1033.44 μmol/(μmol × min). Moreover, in data set [3], the Michaelis constant (Km) amounted to 5.32 µM, the Vmax was 30.6 µmol/min/mg and the kcat is 944.95 μmol/(μmol × min).

B2: G39D R40I: 7β-HSDH double mutant G39D/R40I, SEQ ID NO:39 (protein)
chain: MNLREKYGEWGLILGATEGVGKAFCEKIAAGGMNVVMVDIREEKLNVLAGEIRETYGVETKVVRADFSQPGAAETVFAATEGLDMGFMSYVACLHSFGKIQDTPWEKHEAMINVNVVTFLKCFHHYMRIFAAQDRGAVINVSSMTGISSSPWNGQYGAGKAFILKMTEAVACECEGTGVDVEVITLGTTLTPSLLSNLPGGPQGEAVMKIALTPEECVDEAFEKLGKELSVIAGQRNKDSVHDWKANHTEDEYIRYMGSFYRD
Consider B2, for which, in data set [4], the “Specific activity NADH” value is recorded as 0.8 U/mg, the “Volumetric activity NADH” value is reported as 21 U/ml, the “Specific activity NADPH” value was found to be 0 U/mg and the “Volumetric activity NADPH” value is 0 U/ml.

B3: Collinsella aerofaciens 7β-HSDH mutant G39D R40L, SEQ ID NO:38 (parent SEQ ID NO:2) (Collinsella aerofaciens ATCC 25986; G39D/R40L) (protein)
chain: MNLREKYGEWGLILGATEGVGKAFCEKIAAGGMNVVMVDLREEKLNVLAGEIRETYGVETKVVRADFSQPGAAETVFAATEGLDMGFMSYVACLHSFGKIQDTPWEKHEAMINVNVVTFLKCFHHYMRIFAAQDRGAVINVSSMTGISSSPWNGQYGAGKAFILKMTEAVACECEGTGVDVEVITLGTTLTPSLLSNLPGGPQGEAVMKIALTPEECVDEAFEKLGKELSVIAGQRNKDSVHDWKANHTEDEYIRYMGSFYRD
notes: made in house
B3: in data set [5], the Km was 560 ± 80 µM and the Vmax amounted to 1.6 µmol/min/mg.

B4: Collinsella aerofaciens 7β-HSDH mutant G39D, SEQ ID NO:37 (parent SEQ ID NO:2) (Collinsella aerofaciens ATCC 25986; G39D) (protein)
chain: MNLREKYGEWGLILGATEGVGKAFCEKIAAGGMNVVMVDRREEKLNVLAGEIRETYGVETKVVRADFSQPGAAETVFAATEGLDMGFMSYVACLHSFGKIQDTPWEKHEAMINVNVVTFLKCFHHYMRIFAAQDRGAVINVSSMTGISSSPWNGQYGAGKAFILKMTEAVACECEGTGVDVEVITLGTTLTPSLLSNLPGGPQGEAVMKIALTPEECVDEAFEKLGKELSVIAGQRNKDSVHDWKANHTEDEYIRYMGSFYRD
notes: made in house
On to B4, for which, in data set [4], the “Specific activity NADH” value worked out at 0.1 U/mg, the “Volumetric activity NADH” value came out at 2 U/ml, the “Specific activity NADPH” value is reported as 5.1 U/mg and the “Volumetric activity NADPH” value was found to be 119 U/ml. In data set [5], the Km was found to be 660 ± 120 µM and the Vmax is 2.9 µmol/min/mg.

B5: Collinsella aerofaciens 7β-HSDH mutant G39D R40V, SEQ ID NO:40 (parent SEQ ID NO:2) (Collinsella aerofaciens ATCC 25986; G39D/R40V) (protein)
chain: MNLREKYGEWGLILGATEGVGKAFCEKIAAGGMNVVMVDVREEKLNVLAGEIRETYGVETKVVRADFSQPGAAETVFAATEGLDMGFMSYVACLHSFGKIQDTPWEKHEAMINVNVVTFLKCFHHYMRIFAAQDRGAVINVSSMTGISSSPWNGQYGAGKAFILKMTEAVACECEGTGVDVEVITLGTTLTPSLLSNLPGGPQGEAVMKIALTPEECVDEAFEKLGKELSVIAGQRNKDSVHDWKANHTEDEYIRYMGSFYRD
notes: made in house
B5: in data set [5], the Km was found to be 880 ± 20 µM and the Vmax was 2.69 µmol/min/mg.

B6: Collinsella aerofaciens 7β-HSDH mutant G39D R40I, SEQ ID NO:39 (parent SEQ ID NO:2) (Collinsella aerofaciens ATCC 25986; G39D/R40I) (protein)
chain: MNLREKYGEWGLILGATEGVGKAFCEKIAAGGMNVVMVDIREEKLNVLAGEIRETYGVETKVVRADFSQPGAAETVFAATEGLDMGFMSYVACLHSFGKIQDTPWEKHEAMINVNVVTFLKCFHHYMRIFAAQDRGAVINVSSMTGISSSPWNGQYGAGKAFILKMTEAVACECEGTGVDVEVITLGTTLTPSLLSNLPGGPQGEAVMKIALTPEECVDEAFEKLGKELSVIAGQRNKDSVHDWKANHTEDEYIRYMGSFYRD
notes: made in house
Consider B6, for which, in data set [5], the Michaelis constant (Km) is 920 ± 170 µM and the Vmax stood at 4.64 µmol/min/mg.

B7: FDH: formate dehydrogenase from Mycobacterium vaccae N10, mutant D221G, utilizes both NAD+ and NADP+ (protein)
chain: MAKVLCVLYDDPVDGYPKTYARDDLPKIDHYPGGQILPTPKAIDFTPGQLLGSVSGELGLREYLESNGHTLVVTSDKDGPDSVFERELVDADVVISQPFWPAYLTPERIAKAKNLKLALTAGIGSDHVDLQSAIDRNVTVAEVTYCNSISVAEHVVMMILSLVRNYLPSHEWARKGGWNIADCVSHAYDLEAMHVGTVAAGRIGLAVLRRLAPFDVHLHYTGRHRLPESVEKELNLTWHATREDMYPVCDVVTLNCPLHPETEHMINDETLKLFKRGAYIVNTARGKLCDRDAVARALESGRLAGYAGDVWFPQPAPKDHPWRTMPYNGMTPHISGTTLTAQARYAAGTREILECFFEGRPIRDEYLIVQGGALAGTGAHSYSKGNATGGSEEAAKFKKAV
modifications: CDS (1)..(1203)
With B7, the Specific activity is reported as 4.6 U × mg^−1 in data set [6] (pH 6, NAD+); 1 U × mg^−1 in data set [6] (pH 6, NADP+); 5.1 U × mg^−1 in data set [6] (pH 7, NAD+); 1.2 U × mg^−1 in data set [6] (pH 7, NADP+); 4.7 U × mg^−1 in data set [6] (pH 8, NAD+); 1 U × mg^−1 in data set [6] (pH 8, NADP+).
